Consider 2 molecules from patent US20230295751, “Biological Detection Sensor Chip and COVID-19 Test Kit” (published 2023).

Data set [1] relates to Negative control virus without spike protein. The data set is described as follows: SPR. The settings on record: 5'-NH2 with 12C spacer.
The target in data set [2] is Bovine serum albumin (BSA) (Bos taurus, UniProt P02769 P02769:25-607). The data set can be described thus: SPR.
Chain of Bovine serum albumin (BSA) (P02769 25-607, one chain of several): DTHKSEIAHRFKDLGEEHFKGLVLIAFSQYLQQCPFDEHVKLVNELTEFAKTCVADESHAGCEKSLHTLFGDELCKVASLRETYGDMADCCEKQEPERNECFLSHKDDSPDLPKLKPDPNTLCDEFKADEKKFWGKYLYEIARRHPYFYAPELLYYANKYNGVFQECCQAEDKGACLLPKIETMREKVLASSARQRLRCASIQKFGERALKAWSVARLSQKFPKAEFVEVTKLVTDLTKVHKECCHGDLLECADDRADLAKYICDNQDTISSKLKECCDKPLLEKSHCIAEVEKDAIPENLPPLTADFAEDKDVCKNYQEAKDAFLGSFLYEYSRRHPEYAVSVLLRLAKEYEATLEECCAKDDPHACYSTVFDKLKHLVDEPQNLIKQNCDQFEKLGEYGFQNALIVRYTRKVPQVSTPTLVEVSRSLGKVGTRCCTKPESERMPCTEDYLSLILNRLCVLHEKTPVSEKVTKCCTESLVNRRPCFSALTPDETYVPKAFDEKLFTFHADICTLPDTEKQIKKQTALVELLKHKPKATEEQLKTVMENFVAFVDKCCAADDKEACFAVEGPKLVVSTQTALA

For “CAGCACCGACCTTGTGCTTTGGGAGTGCTGGTCCAAGGGCGTTAATGGACA [Capturing aptamer against SARS-CoV-2 SRBD]”, the binding in data set [1] is 23 RU.

B1: Capturing aptamer against SARS-CoV-2 SRBD (ssDNA)
DNA: CAGCACCGACCTTGTGCTTTGGGAGTGCTGGTCCAAGGGCGTTAATGGACA
modifications: 5'-NH2 with 12C spacer
Consider B1, for which the binding result in data set [2] was “no binding”.
